Reference: paper PMC9522604
Like-named read-outs stand apart in the source and are kept apart here.

Experiments:
Cas12c2 [1] = target: T1, Cas12c2 (UniProt PDB:7V94_1 1-1232); assay: cryo-EM
T1 sequence: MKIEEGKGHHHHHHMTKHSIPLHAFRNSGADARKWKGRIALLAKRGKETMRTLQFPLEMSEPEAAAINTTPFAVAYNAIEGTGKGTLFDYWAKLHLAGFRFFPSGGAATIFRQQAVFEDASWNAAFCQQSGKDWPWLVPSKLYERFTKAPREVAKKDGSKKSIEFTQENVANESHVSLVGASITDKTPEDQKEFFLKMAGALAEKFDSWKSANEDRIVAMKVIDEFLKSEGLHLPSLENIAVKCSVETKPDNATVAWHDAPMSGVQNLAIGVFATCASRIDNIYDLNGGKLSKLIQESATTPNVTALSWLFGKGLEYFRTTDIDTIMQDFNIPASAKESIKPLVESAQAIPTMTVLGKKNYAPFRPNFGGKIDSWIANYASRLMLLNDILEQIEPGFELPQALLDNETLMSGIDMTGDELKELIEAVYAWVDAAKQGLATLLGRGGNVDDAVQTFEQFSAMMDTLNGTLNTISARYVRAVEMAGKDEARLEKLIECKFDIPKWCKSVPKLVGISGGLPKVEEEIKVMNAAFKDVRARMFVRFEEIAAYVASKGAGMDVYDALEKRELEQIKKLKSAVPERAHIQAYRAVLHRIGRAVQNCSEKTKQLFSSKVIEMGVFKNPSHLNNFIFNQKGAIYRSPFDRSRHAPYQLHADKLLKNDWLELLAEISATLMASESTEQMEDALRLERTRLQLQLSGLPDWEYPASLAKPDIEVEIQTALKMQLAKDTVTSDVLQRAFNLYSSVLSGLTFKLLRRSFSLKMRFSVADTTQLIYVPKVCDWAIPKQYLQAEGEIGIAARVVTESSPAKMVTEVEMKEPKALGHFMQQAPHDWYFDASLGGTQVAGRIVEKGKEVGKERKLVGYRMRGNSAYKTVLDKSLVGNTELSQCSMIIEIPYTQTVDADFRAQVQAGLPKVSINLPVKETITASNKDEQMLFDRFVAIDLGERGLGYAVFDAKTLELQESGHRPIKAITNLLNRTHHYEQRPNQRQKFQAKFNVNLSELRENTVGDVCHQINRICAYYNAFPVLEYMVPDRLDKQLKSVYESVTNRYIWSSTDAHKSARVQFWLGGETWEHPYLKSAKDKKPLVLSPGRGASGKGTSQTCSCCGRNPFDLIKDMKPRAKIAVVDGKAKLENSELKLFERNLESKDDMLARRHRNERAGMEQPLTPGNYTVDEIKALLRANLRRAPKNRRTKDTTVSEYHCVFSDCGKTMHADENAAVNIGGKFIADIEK

Cas12c2 [2] = target: T1, Cas12c2; assay: cryo-EM; remark: listed apart in the source

Row | Binder | binding result (Cas12c2 [1]) | binding result (Cas12c2 [2])
1 | Cas12c2 sgRNA (112 nt) (structured_RNA) RNA: GGAUACCACCCGUGCAUUUCUGGAUCAAUGAUCCGUACCUCAAUGUCCGGGCGCGCAGCUAGAGCGACCUGAAGAAAUUCAGGUUGGGUUUGAGGGGAAAUUAGGUGCGCUU | binds | 
2 | sgRNA + 33-bp target DNA, TG PAM (guide/target strand/non-target strand) (mixed) RNA: GGAUACCACCCGUGCAUUUCUGGAUCAAUGAUCCGUACCUCAAUGUCCGGGCGCGCAGCUAGAGCGACCUGAAGAAAUUCAGGUUGGGUUUGAGGGGAAAUUAGGUGCGCUU DNA 1: AGGTTGCCAAGCGCACCTAATTTCCCATTTTAG DNA 2: CTAAAATGGGAAATTAGGTGCGCTTGGCAACCT |  | binds
